According to the supplement of paper PMC12042874:
± gives the uncertainty stated by the source.

Test: amyloid nucleation score (Sup35N fusion, yeast selection) (log enrichment); library NNK3; higher = more nucleation; inactive = no reads after selection
Procedure, shortened: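 Output and input plasmid inserts were sequenced by Illumina after psi-negative yeast carrying Sup35N fused to peptides of 20 random codons had been induced 24 hours with 100 μM copper sulfate and grown 7 days at 30°C on medium lacking adenine and uracil. The nucleation score is the DiMSum log enrichment of output over input reads, centred on the mode score of non-aggregating sequences. Sequences with under 100 input reads were excluded.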

Row | Substance | amyloid nucleation score
1 | VGAYYGMFNSLMSFLQWISQ | 0.733 ± 0.2
2 | VGDVFSKRCHMRLFMNSLER | inactive
3 | VGELIGLGSLWGMEINY | inactive
4 | VGETWNSVACVLTQLWLTCE | -0.014 ± 0.26
5 | VGKYAGCCLKRPSLDAMGHV | inactive
6 | VGLFASPDRRYRMIAFVPGL | inactive
7 | VGLVMNCNKFYVLWFDQIGK | 2.27 ± 0.068
8 | VGMGLAKDVR | inactive
9 | VGPALNVVSWELV | inactive
10 | VGQCFNELVRFNRSGISRLV | inactive
11 | VGRYPSLVSLNDTCNDVTRI | inactive
12 | VGSLDVIVINQKFSVFVMSC | inactive
13 | VGTFRGSEGPRFVLVV | -0.486 ± 1.9
14 | VGTIVFVFSFASWPRVGYIR | inactive
15 | VGVFV | inactive
16 | VGVMLYWVKEFFVL | inactive
17 | VGVNWTFPMPLSTL | inactive
18 | VGWNQDGDHMKSLKVAWARW | inactive
19 | VHKYMGEVLHQYFPLMLYLF | 0.807 ± 0.1
20 | VHSCLLCHWSFYWLLFFMRS | inactive
21 | VHTVTSCNLKDLLMKIHCTR | inactive
22 | VHVRLQAPFPEAL | inactive
23 | VHVYCNWKFRDEIRANSTRR | inactive

Row | Substance | amyloid nucleation score
24 | VIAVSYNFTWFKTSIFN | 1.31 ± 0.11
25 | VICLLPLT | 0.099 ± 0.3
26 | VICRKLVMPFVESNRWHWSN | inactive
27 | VIDDHMFQRKRQMVLKKQLN | inactive
28 | VIFLGAYHNSLLNRAMHSGH | 1.45 ± 0.12
29 | VIFSITANIRAQFLFYCYRV | -0.083 ± 0.81
30 | VIHQIMIMYGVYPASMKLFF | 1.77 ± 0.098
31 | VIICIAGGLPMRTH | 1.71 ± 0.06
32 | VIIINRVIENRWSDRHEITN | 2.57 ± 0.053
33 | VIIYI | inactive
34 | VIKTLTHSFHLTNGFGTSYI | inactive
35 | VIKVWLLCRRIVSVQFLAP | inactive
36 | VIMADA | inactive
37 | VIMSRCPVHIDMVPRDAQPL | inactive
38 | VINSR | inactive
39 | VIPFPFNLGDYCRMFDPRRS | inactive
40 | VIRVTWGYNWNNYVKHVYRS | 0.35 ± 0.55
41 | VISFDVWSNRMCFLMGMIWH | inactive
42 | VISFLMKLRWYCTVHGSGGM | inactive
43 | VISLRLVLNWNVTGVSLLGW | 0.611 ± 0.16
44 | VIVARFLFMGTTFHVPDVRP | 1.97 ± 0.075
45 | VIVLNFALLRASLSAGFLMS | 0.405 ± 0.28
46 | VIYVKSIMSFSLCDFDY | 3.11 ± 0.074

Row | Substance | amyloid nucleation score
47 | VKEMFKF | inactive
48 | VKNIWIDVTMGDQLFIPNFY | 2.36 ± 0.051
49 | VKRGLVCETSLCRYFFLFGQ | 1.35 ± 0.089
50 | VKSFVSFCSGTLSPLMFRSG | 0.535 ± 0.19
51 | VKTNVCTTYGHY | inactive
52 | VKWLLGMSEWKG | -0.877 ± 2.4
53 | VLASWASYPTGSQSKGGERT | inactive
54 | VLDVVY | inactive
55 | VLFKYTSRIMDCVKTLKPLK | inactive
56 | VLGNRRFSGLFGEYQGKTTG | -0.593 ± 1.1
57 | VLGPDGRVKYVAKDSNIMVI | inactive
58 | VLGYDGAGKVVIFDVNLAGL | 1.87 ± 0.083
59 | VLIMPA | inactive
60 | VLIYLDRCRNFDEKGFHNFC | 0.448 ± 0.21
61 | VLKMAACNPGTNSLSTPGCG | inactive
62 | VLNFWGAVFPIIMLFYESVY | 2.03 ± 0.096
63 | VLPNIQFFYCMCWVMLYLPF | inactive
64 | VLRFFM | 0.399 ± 0.23
65 | VLRLFDTNPHDSREVAYFYF | inactive
66 | VLRRLGWICL | inactive
67 | VLSHSHGSWSRESYKLLRLD | inactive
68 | VLSRSKRTGISNYLCNLCEI | inactive
69 | VLSTVFKAKPNHNRAFMG | 0.063 ± 0.78

Row | Substance | amyloid nucleation score
70 | VLTRTTRLTHSTTSICLLVL | inactive
71 | VLVSVILYIYYDDCFYSWSF | inactive
72 | VMAYRHAGRRFSDPKSIKIS | inactive
73 | VMKNSTIILSFTFLSPKVSF | 2.16 ± 0.069
74 | VMMDWILQIVAYSSDHTGSK | inactive
75 | VMNLEPRSHVWYVTVFSHAS | 1.68 ± 0.096
76 | VMRPIPMSLYLNNFNES | inactive
77 | VMVAMTFNWHDALILWDGMV | inactive
78 | VMVSPPFTYWSRYVDYEYGE | inactive
79 | VNCTNLRKPLQLTQ | inactive
80 | VNCWTNYRYQGSDFIMSYIR | inactive
81 | VNEPDSVFMT | inactive
82 | VNFLSDIVNFGCIVWFPPKI | 2.32 ± 0.087
83 | VNFSYNYVGWCFMQLCSAAN | 1.74 ± 0.086
84 | VNGFFLVACTCSYFNNRSSW | 1.57 ± 0.12
85 | VNIGTIWETDKCMEIFCAAA | inactive
86 | VNILVFLCFAPSLSSRYWWL | 2.28 ± 0.081
87 | VNIYGCSYVLHPGCCNGESR | 2.84 ± 0.073
88 | VNLEYYV | inactive
89 | VNMISCVYFDMSIERTDEMI | 0.801 ± 0.19
90 | VNNVQCLYDAVREDSRWYWG | inactive
91 | VNPCLYGPYSSNNCSRSYFV | inactive
92 | VNQLPRVSGAPIGLLWVCVK | inactive

Row | Substance | amyloid nucleation score
93 | VNTSINVYRYPFRCRSYRMH | 0.833 ± 0.085
94 | VPFVGLLSLALAFYSIKNSN | 0.921 ± 0.23
95 | VPGFGVLACCGQVLLFSHLF | inactive
96 | VPGYLWECS | inactive
97 | VPKFVMDMIL | inactive
98 | VPLTRSKYYFRSWRWIDCGG | inactive
99 | VPNSRIVTREGCWESACGIR | inactive
100 | VPTMMRVR | inactive
101 | VQGIRFRELFGRPAVRVVWH | inactive
102 | VQLIWDFYSCSN | inactive
103 | VQSFGPNFD | inactive
104 | VQVIRFFWIMGLTGWTRELP | inactive
105 | VQWSEMTAFTGFFSVYISSG | inactive
106 | VRCSR | inactive
107 | VRDQLRVTLVRSENGIHAHY | inactive
108 | VRDRCRIHCAYNRSKGTVSN | inactive
109 | VRGKRTSLWDIKVDYSPDTV | inactive
110 | VRLSVMG | inactive
111 | VRNRSFGTALDNELLNLRPR | inactive
112 | VRNYGLDFRRACGWT | inactive
113 | VRPELMALTDI | inactive
114 | VRRIIML | inactive
115 | VRSLDNQLSVDFFFVGPVGF | 1.3 ± 0.14

Row | Substance | amyloid nucleation score
116 | VRSRMSNWFNHPTVFDRLWA | 0.547 ± 0.2
117 | VRSVRGADELDLICHRLSRN | inactive
118 | VRVLFGPFYYVFGSYLIGLV | inactive
119 | VRYVSFAEFSWGLRFSVSRR | inactive
120 | VSCSPMYEEYRHGNLAEYNE | -0.559 ± 0.94
121 | VSDYYDKYGLYFCWFWDGYK | inactive
122 | VSGLDWFM | inactive
123 | VSGRWFTMWSGFSLCFALSG | 0.062 ± 0.46
124 | VSGSKWQLREGVAKYMMCRY | inactive
125 | VSHLAQHCNRLLLVSMLLGA | inactive
126 | VSHRYFTGRMIALIRGDCLV | inactive
127 | VSHSAFVLNSCERE | inactive
128 | VSHTIKAILFGFRRQDHLYF | inactive
129 | VSINRRLFCLLGDDFTS | inactive
130 | VSKLWSYLVLYPHWV | inactive
131 | VSKYIVSHIASSWSWGQWVL | inactive
132 | VSLKVIDKNFNFHVMYGCID | inactive
133 | VSLKYSTKKPWLKTDHPCWI | inactive
134 | VSMRSTYTFG | 0.597 ± 0.51
135 | VSNECVPWAPYGIGGF | inactive
136 | VSQYSVLGVAWSELFRTVD | -0.064 ± 0.26
137 | VSRMARYRLLTYRSAFNSML | -0.605 ± 1.2
138 | VSSAYLKCSFLKNLAVSLYG | inactive

Row | Substance | amyloid nucleation score
139 | VSSLR | inactive
140 | VSSTALGGNNSICHLSPFYT | inactive
141 | VSTSFDFKWNLSLGIWFMVI | inactive
142 | VSVYKNVAFFISWI | 1.58 ± 0.09
143 | VSWHNILMWTRTPL | inactive
144 | VSWYCCTFAAFILWNSSWCI | inactive
145 | VSYNFGYAYECLGYVRFV | 0.572 ± 0.36
146 | VTASSPDLIGGVHMEWRLTC | inactive
147 | VTCSRSLRLSKMFPNKMFLI | inactive
148 | VTGLCSDTHRVSYEFRLPRK | inactive
149 | VTHGSVCFTTIYRTIWRFNR | inactive
150 | VTICISPAHLFAS | inactive
151 | VTILYASASMESLSLGLCGT | inactive
152 | VTLDEFRIISHCSYSFCYEG | inactive
153 | VTLLWFISPFMMHWWVQRNG | -0.191 ± 1
154 | VTLMILKGVFKFM | -0.136 ± 1
155 | VTLTN | inactive
156 | VTPVFMIWAS | inactive
157 | VTRQLYVMGFVGHDEEGVVS | inactive
158 | VVCFLYIRSYNQGLCRSYFR | 2.29 ± 0.091
